From US9994881B2, “Functionalized carboxylic acids and alcohols by reverse fatty acid oxidation in engineered microbes” (William Marsh Rice University, priority 2011, dated 2018)

How the values were obtained:
[1] = substrate: C/C=C/C(=O)SCCNC(=O)CCNC(=O)[C@H](O)C(C)(C)COP(=O)(O)OP(=O)(O)OC[C@H]1O[C@@H](n2cnc3c(N)ncnc32)[C@H](O)[C@@H]1OP(=O)(O)O; experiment: Crotonyl-CoA reductase kinetics (loss of NADH absorbance); format: biochemical, Euglena gracilis; details: other: NADH as co-factor, 0.2 mM NADH, pH 7.5, 25° C.
Source text: For AtoB and thioesterase characterization assays, the pCA24N-gene (-gfp) plasmids from the ASKA collection^44 were used. For expression of E. gracilis TER for kinetic characterization, the egTER gene was cloned into pTrcHis2A using the In-Fusion protocol (Clontech Laboratories, Inc., Mountain View, Calif.) following PCR amplification from the aforementioned codon-optimized egTER containing plasmid with the primer pair of F1pTH6hisEgter and R1pTH6hisEgter (Supplementary Table S3).
(§1) Cultures for enzymatic assays were grown overnight in 100 mL of LB media at 37° C. in 250 mL baffled flasks (Wheaton Industries, Inc., Millville, N.J.) in E. coli BL21 (DE3) cells induced with either 1 mM IPTG (pCA24N, pTrcHis2A) or 1 mM Arabinose (pUCBB-pBAD) at an OD600˜0.6, or expressed constitutively (pUCBB-ntH6). Reactions were monitored on either a Synergy HT plate reader (BioTek Instruments, Inc., Winooski, Vt.) at 25° C. (for reactions monitored at 300 nm or higher) or in a Biomate 5 Spectrophotometer (Thermo Scientific, Waltham, Mass.) for reactions at 263 nm. […]
(§2) For kinetic characterization, his-tagged proteins of AtoB, FadA, FadB, caHBD, egTER were purified from the B-PER supernatant fractions using Talon Metal Affinity Resin (Clontech Laboratories, Inc., Mountain View, Calif.) using gravity purification. […] Enzyme concentration was established by measuring the absorbance at […] and extinction coefficients predicted for each enzyme by the ProtParam program (web.expasy.org/protparam/).
For kinetic characterization, an appropriate amount of enzyme was established by checking linear range near predicted KM values. Then, the rates were measured for a range of substrates in order to establish kcat and KM. In the cases of FadB for the crotonase reaction and FadA in the “forward” thiolase reaction coupled with HBD, substrate saturation could not be established, as such, the kcat/KM for the reaction was determined by dividing the linear slope of Velocity vs. [Substrate] by the amount of enzyme used in the assays. […]

[2] = substrate: CCCC(=O)SCCNC(=O)CCNC(=O)[C@H](O)C(C)(C)COP(=O)(O)OP(=O)(O)OC[C@H]1O[C@@H](n2cnc3c(N)ncnc32)[C@H](O)[C@@H]1OP(=O)(O)O; experiment: purified protein, by the assay type; details: other: pH 7.5, 200 mM KCl, DTNB, 25° C.
Description: (§6) Cells were lysed using Bacterial Protein Extraction Reagent (B-PER) (Thermo Scientific, Waltham, Mass.) as per the prescribed protocol in order to obtain the supernatant containing the active enzymes.
(§7) For kinetic characterization, an appropriate amount of enzyme was established by checking linear range near predicted KM values. Then, the rates were measured for a range of substrates in order to establish kcat and KM. In the cases of FadB for the crotonase reaction and FadA in the “forward” thiolase reaction coupled with HBD, substrate saturation could not be established, as such, the kcat/KM for the reaction was determined by dividing the linear slope of Velocity vs. [Substrate] by the amount of enzyme used in the assays. For reactions that could be saturated, Velocity vs. [Substrate] was fitted by the EnzKIN Matlab module (mathworks.com/matlabcentral/fileexchange/26653) to establish Vmax and KM.
(§8) Thioesterase activity was monitored by following the production of TNB at 412 nm (ε=4.3 mM^−1 cm^−1)^30. Reactions were carried out in the presence of 100 mM Tris pH 7.5, 200 mM KCl, 25 mM DTNB and 200 μM of the ‘-CoA’ substrate in a volume of 200 μL at 25° C.

[3] = substrate: C/C=C/C(=O)SCCNC(=O)CCNC(=O)[C@H](O)C(C)(C)COP(=O)(O)OP(=O)(O)OC[C@H]1O[C@@H](n2cnc3c(N)ncnc32)[C@H](O)[C@@H]1OP(=O)(O)O; experiment: purified protein, by the assay type; details: other: pH 7.5, 200 mM KCl, DTNB, 25° C.
Description: as §6, §7, §8

[4] = substrate: CC(=O)SCCNC(=O)CCNC(=O)[C@H](O)C(C)(C)COP(=O)(O)OP(=O)(O)OC[C@H]1O[C@@H](n2cnc3c(N)ncnc32)[C@H](O)[C@@H]1OP(=O)(O)O; experiment: purified protein, by the assay type; details: 25° C.
[5] = substrate: CC(=O)CC(=O)SCCNC(=O)CCNC(=O)[C@H](O)C(C)(C)COP(=O)(O)OP(=O)(O)OC[C@H]1O[C@@H](n2cnc3c(N)ncnc32)[C@H](O)[C@@H]1OP(=O)(O)O; experiment: purified protein, by the assay type; details: 25° C.
[6] = substrate: CC(O)CC(=O)SCCNC(=O)CCNC(=O)[C@H](O)C(C)(C)COP(=O)(O)OP(=O)(O)OC[C@H]1O[C@@H](n2cnc3c(N)ncnc32)[C@H](O)[C@@H]1OP(=O)(O)O; experiment: purified protein, by the assay type; details: other: pH 7.5, 200 mM KCl, DTNB, 25° C.
Description: as §6, §7, §8

[7] = substrate: CC(=O)CC(=O)SCCNC(=O)CCNC(=O)[C@H](O)C(C)(C)COP(=O)(O)OP(=O)(O)OC[C@H]1O[C@@H](n2cnc3c(N)ncnc32)[C@H](O)[C@@H]1OP(=O)(O)O; experiment: purified protein, by the assay type; format: biochemical, Escherichia coli; details: other: reverse direction, pH 7.5, 2 mM CoA, 25° C.
Source text: (§3) For enzyme characterization, E. coli fadA and fadB genes were cloned from MG1655 genomic DNA into the pUCBB-ntH6 vector^43 to yield a constitutively expressed gene with a n-terminal 6 His-tag that can be cleaved by Thrombin. fadA was amplified as two halves with the primers fadANdeI5p:fadAmidrev (1st half) and fadAmidfor:fadANotI3p (2nd half) (Supplementary Table S3).
(§4) fadB was amplified in three parts with fadBNdeI5p:fadBmid1rev (1st part), fadBmid1for:fadBmid2rev (2nd part), and fadBmid2for:fadBNotI3p (3rd part) (Supplementary Table S3). fadA and fadB PCR products sections were combined by overlap extension PCR to yield the whole genes, which were subsequently digested with NdeI and NotI restriction enzymes and ligated into pUCBB-ntH6 that was previously digested with NdeI and NotI to yield pUCBB-ntH6-FadA and pUCBB-ntH6-FadB.
as §1, §2
(§5) For kinetic characterization, an appropriate amount of enzyme was established by checking linear range near predicted KM values. Then, the rates were measured for a range of substrates in order to establish kcat and KM. […]

[8] = substrate: CC(=O)CC(=O)SCCNC(=O)CCNC(=O)[C@H](O)C(C)(C)COP(=O)(O)OP(=O)(O)OC[C@H]1O[C@@H](n2cnc3c(N)ncnc32)[C@H](O)[C@@H]1OP(=O)(O)O; experiment: 3-Hydroxyacyl-CoA (β-hydroxybutyryl-CoA) dehydrogenase kinetics (oxidation of NADH at 340 nm); format: biochemical, Escherichia coli; details: other: NADH dependent reduction, pH 7.5, 0.2 mM NADH, 25° C.
Source text: as §3, §4, §1, §2, §5

[9] = other: pH 7.5, 200 mM KCl, DTNB
[10] = other: acetyl-CoA condensation, pH 7.5, 0.2 mM NADH
[11] = other: reverse direction, pH 7.5, 2 mM CoA

B1: Euglena gracilis trans-2-enoyl-CoA reductase egTER (AAW66853.1), his-tagged (Euglena gracilis) (protein)
chain: VPQMAEGFSGEATSAWAAAGPQWAAPLVAAASSALALWWWAARRSVRRPLAALAELPTAVTHLAPPMAMFTTTAKVIQPKIRGFICTTTHPIGCEKRVQEEIAYARAHPPTSPGPKRVLVIGCSTGYGLSTRITAAFGYQAATLGVFLAGPPTKGRPAAAGWYNTVAFEKAALEAGLYARSLNGDAFDSTTKARTVEAIKRDLGTVDLVVYSIAAPKRTDPATGVLHKACLKPIGATYTNRTVNTDKAEVTDVSIEPASPEEIADTVKVMGGEDWELWIQALSEAGVLAEGAKTVAYSYIGPEMTWPVYWSGTIGEAKKDVEKAAKRITQQYGCPAYPVVAKALVTQASSAIPVVPLYICLLYRVMKEKGTHEGCIEQMVRLLTTKLYPENGAPIVDEAGRVRVDDWEMAEDVQQAVKDLWSQVSTANLKDISDFAGYQTEFLRLFGFGIDGVDYDQPVDVEADLPSAAQQ
Km [1]: 98.5 ± 7.7 µM | kcat [1]: 1.14 ± 0.08 s⁻¹ | kcat/Km [1]: 11600 M⁻¹ s⁻¹

B2: E. coli YciA (acyl-CoA thioesterase, NP_415769.1), wild type (Escherichia coli K-12) (protein)
chain: MSTTHNVPQGDLVLRTLAMPADTNANGDIFGGWLMSQMDIGGAILAKEIAHGRVVTVRVEGMTFLRPVAVGDVVCCYARCVQKGTTSVSINIEVWVKKVASEPIGQRYKATEALFKYVAVDPEGKPRALPVE
Km [2]: 641.8 ± 91.9 µM | kcat [2]: 558 ± 79.6 s⁻¹ | kcat/Km [2]: 869000 M⁻¹ s⁻¹ | Km [3]: 1348.8 ± 235.5 µM | Km [4, 9]: 42.7 ± 1.2 µM | Km [5, 9]: 875.7 ± 180.9 µM | kcat [5, 9]: 265 ± 54.7 s⁻¹ | kcat/Km [5, 9]: 302000 M⁻¹ s⁻¹ | Km [6]: 353.8 ± 38.8 µM

B3: E. coli FadA (3-ketoacyl-CoA thiolase, YP_026272.1), wild type, his-tagged (Escherichia coli K-12) (protein)
chain: MEQVVIVDAIRTPMGRSKGGAFRNVRAEDLSAHLMRSLLARNPALEAAALDDIYWGCVQQTLEQGFNIARNAALLAEVPHSVPAVTVNRLCGSSMQALHDAARMIMTGDAQACLVGGVEHMGHVPMSHGVDFHPGLSRNVAKAAGMMGLTAEMLARMHGISREMQDAFAARSHARAWAATQSAAFKNEIIPTGGHDADGVLKQFNYDEVIRPETTVEALATLRPAFDPVNGMVTAGTSSALSDGAAAMLVMSESRAHELGLKPRARVRSMAVVGCDPSIMGYGPVPASKLALKKAGLSASDIGVFEMNEAFAAQILPCIKDLGLIEQIDEKINLNGGAIALGHPLGCSGARISTTLLNLMERKDVQFGLATMCIGLGQGIATVFERV
notes: assayed alone without FadB
Km [7]: 422.5 ± 57.3 µM | kcat [7]: 0.75 ± 0.09 s⁻¹ | kcat/Km [7]: 1770 M⁻¹ s⁻¹

B4: E. coli AtoB (thiolase), wild type, his-tagged (Escherichia coli K-12) (protein)
chain: MKNCVIVSAVRTAIGSFNGSLASTSAIDLGATVIKAAIERAKIDSQHVDEVIMGNVLQAGLGQNPARQALLKSGLAETVCGFTVNKVCGSGLKSVALAAQAIQAGQAQSIVAGGMENMSLAPYLLDAKARSGYRLGDGQVYDVILRDGLMCATHGYHMGITAENVAKEYGITREMQDELALHSQRKAAAAIESGAFTAEIVPVNVVTRKKTFVFSQDEFPKANSTAEALGALRPAFDKAGTVTAGNASGINDGAAALVIMEESAALAAGLTPLARIKSYASGGVPPALMGMGPVPATQKALQLAGLQLADIDLIEANEAFAAQFLAVGKNLGFDSEKVNVNGGAIALGHPIGASGARILVTLLHAMQARDKTLGLATLCIGGGQGIAMVIERLN
Km [4, 10]: 892.0 ± 56.5 µM | kcat [4, 10]: 3.17 s⁻¹ | kcat/Km [4, 10]: 3550 M⁻¹ s⁻¹ | Km [5, 11]: 68.1 ± 2.56 µM | kcat [5, 11]: 9.23 s⁻¹ | kcat/Km [5, 11]: 136000 M⁻¹ s⁻¹

B5: E. coli FadB (hydroxyacyl-CoA dehydrogenase / enoyl-CoA hydratase, NP_418288.1), wild type, his-tagged (Escherichia coli K-12) (protein)
chain: MLYKGDTLYLDWLEDGIAELVFDAPGSVNKLDTATVASLGEAIGVLEQQSDLKGLLLRSNKAAFIVGADITEFLSLFLVPEEQLSQWLHFANSVFNRLEDLPVPTIAAVNGYALGGGCECVLATDYRLATPDLRIGLPETKLGIMPGFGGSVRMPRMLGADSALEIIAAGKDVGADQALKIGLVDGVVKAEKLVEGAKAVLRQAINGDLDWKAKRQPKLEPLKLSKIEATMSFTIAKGMVAQTAGKHYPAPITAVKTIEAAARFGREEALNLENKSFVPLAHTNEARALVGIFLNDQYVKGKAKKLTKDVETPKQAAVLGAGIMGGGIAYQSAWKGVPVVMKDINDKSLTLGMTEAAKLLNKQLERGKIDGLKLAGVISTIHPTLDYAGFDRVDIVVEAVVENPKVKKAVLAETEQKVRQDTVLASNTSTIPISELANALERPENFCGMHFFNPVHRMPLVEIIRGEKSSDETIAKVVAWASKMGKTPIVVNDCPGFFVNRVLFPYFAGFSQLLRDGADFRKIDKVMEKQFGWPMGPAYLLDVVGIDTAHHAQAVMAAGFPQRMQKDYRDAIDALFDANRFGQKNGLGFWRYKEDSKGKPKKEEDAAVEDLLAEVSQPKRDFSEEEIIARMMIPMVNEVVRCLEEGIIATPAEADMALVYGLGFPPFHGGAFRWLDTLGSAKYLDMAQQYQHLGPLYEVPEGLRNKARHNEPYYPPVEPARPVGDLKTA
notes: assayed alone without FadA
Km [8]: 390.0 ± 19.2 µM | kcat [8]: 25.9 ± 1.2 s⁻¹ | kcat/Km [8]: 66500 M⁻¹ s⁻¹
